T1: msCLDN18.1
T1 chain: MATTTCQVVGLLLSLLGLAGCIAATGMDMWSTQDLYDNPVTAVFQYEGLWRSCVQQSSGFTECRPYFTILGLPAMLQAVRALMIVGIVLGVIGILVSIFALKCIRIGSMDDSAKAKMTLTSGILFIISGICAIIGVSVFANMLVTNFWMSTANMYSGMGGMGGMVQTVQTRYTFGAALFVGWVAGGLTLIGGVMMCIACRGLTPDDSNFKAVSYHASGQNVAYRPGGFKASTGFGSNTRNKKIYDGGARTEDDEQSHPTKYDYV


Molecular target: T1, msCLDN18.1
Test: flow cytometry on HEK-293T overexpressing mouse Claudin 18.1; 5 µg/mL scFv-hIgG2Fc, detected with PE anti-human IgG Fcγ
Procedure: The stained samples were analyzed by flow cytometry.

| binding result | Binder |
| --- | --- |
| binds | anti-Claudin 18.2 scFv-hIgG2Fc, clone 9G2 (Fc fusion, linker and orientation in the Fc fusion are not restated; not shown: human IgG2 Fc (hIgG2Fc)) EVHLLESGGGLVQPWGSLTLSCAASGFTFSNYAMNWVRQAPGKGLEWVSGISGSGGSTYDADSVKGRFTISRDNSKNTLFLQMNSPRAEDTAVYYCATQGYSFGYFESWGQGTLVTVSSGGGGSGGGGSGGGGSGGGGSEIVLTQSPATLSLSPGERATLSCRASQNVNRYLAWYHQKPGQAPRLLIYDAFNRATGIPARFSGSGSGTDFTLTINSLEPEDFAVYYCQQRSDWPLTFGGGTKLEIK |
| binds | anti-Claudin 18.2 scFv-hIgG2Fc, clone 2A10 (Fc fusion, linker and orientation in the Fc fusion are not restated; not shown: human IgG2 Fc (hIgG2Fc)) QVQLQESGPGLVKPSETLSLTCTVSAGSISSYYWNWIRQPAGKGLEWIGRIYTSGSTNYNPSLRSRVTMSVDTSKNQFSLKLSSVTATDTAVYYCASASYTYFDSFDIWGQGTMVTVSSGGGGSGGGGSGGGGSGGGGSDIQLTQSPSFLSASVGDRVTITCRASQDIRNFLAWYQQKPGKAPKLLIYAASTLQSGVPSRFSGSGSGTEFALTVSSLQPEDFATYYCQQVNSYPRTFGQGTKVEIK |
| binds | anti-Claudin 18.2 scFv-hIgG2Fc, clone 12H6 (Fc fusion, linker and orientation in the Fc fusion are not restated; not shown: human IgG2 Fc (hIgG2Fc)) EVQLVESGGGLVQPGGSLRLSCAASGFTFSRYWMSWVRQAPGKGLEWVANIKHDGSEKYYVDSVKGRFTFSRDNAKTSLYLQMNSLRVEDTALYYCARYYGGPFDYWGQGTLVTVSSGGGGSGGGGSGGGGSGGGGSEIVLTQSPGTLSLSPGERATLSCRASQSVRSSYLAWYQQKPGQAPRLLIFGASSRATGIPDRFSGSGSGTDFTLTISRLEPEDFAVYYCQQFGSSLTFGGGTKVEIK |

Source: patent US20240216430A1 (ALLOGENE THERAPEUTICS, published 2024)
